Reference: article PMC12216489, “Deep mutational scanning identifies Cas1 and Cas2 variants that enhance type II-A CRISPR-Cas spacer acquisition” (Nature Communications, 2025)
Changes are numbered by the printed parent chain. Names and notes keep the numbering of the source.

B1: Streptococcus pyogenes Cas2 (natural protein, S. pyogenes, UniProt Q99ZW0 1-113, looked up)
chain: MSYRYMRMILMFDMPTDTAEERKAYRKFRKFLLSEGFIMHQFSIYSKLLLNNTANNAMIGRLREHNPNKGNITLLTVTEKQFARMIYLHGERNNCIANSDERLVFLGEAFDES
notes: Cas2 of the Streptococcus pyogenes SF370 type II-A CRISPR-Cas locus; One of the plasmids pRAH247, pRAH272 or pRAH273; which plasmid holds which variant is in Supplementary Data 2; Same protocol as for Cas1; also called wild-type Cas2; source: E. coli Rosetta 2(DE3) BL21, purified (Ni-NTA, SUMO protease, HiTrap Heparin, Superdex 200)
B2: Streptococcus pyogenes Cas2 Y5F (natural protein, S. pyogenes, UniProt Q99ZW0 1-113, looked up)
chain: B1 chain with Y5F
notes: Cas2 of the Streptococcus pyogenes SF370 type II-A CRISPR-Cas locus with Y5F; One of the plasmids pRAH247, pRAH272 or pRAH273; which plasmid holds which variant is in Supplementary Data 2; source: E. coli Rosetta 2(DE3) BL21, purified (Ni-NTA, SUMO protease, HiTrap Heparin, Superdex 200)
B3: Streptococcus pyogenes Cas2 Y5A (natural protein, S. pyogenes, UniProt Q99ZW0 1-113, looked up)
chain: B1 chain with Y5A
notes: Cas2 of the Streptococcus pyogenes SF370 type II-A CRISPR-Cas locus with Y5A; One of the plasmids pRAH247, pRAH272 or pRAH273; which plasmid holds which variant is in Supplementary Data 2; source: E. coli Rosetta 2(DE3) BL21, purified (Ni-NTA, SUMO protease, HiTrap Heparin, Superdex 200)

Key:
Assay in all cases: SEC; analytical SEC on Superdex 200 Increase 10/300 GL in SEC buffer (20 mM HEPES pH 7.5, 500 mM NaCl, 5% v/v glycerol, 5 mM DTT) at 4 °C; Cas1 variants (15-100 μM, 2 equiv.) mixed with Cas2 variants (1 equiv.), incubated at 4 °C for 1 h before injection; fractions analysed by SDS-PAGE
Details in all cases: both partners purified
[1] = molecular target: T1, Streptococcus pyogenes Cas1 (S. pyogenes, UniProt Q99ZW1 1-289)
T1 construct: Cas1 of the Streptococcus pyogenes SF370 type II-A CRISPR-Cas locus; One of the plasmids pRAH246, pRAH248 or pRAH249; which plasmid holds which variant is in Supplementary Data 2; Fractions with cleaved Cas1 were pooled after SUMO protease digestion; also called wild-type Cas1; source: E. coli Rosetta 2(DE3) BL21, purified (Ni-NTA, SUMO protease, HiTrap Heparin, Superdex 200)
T1 sequence (looked up): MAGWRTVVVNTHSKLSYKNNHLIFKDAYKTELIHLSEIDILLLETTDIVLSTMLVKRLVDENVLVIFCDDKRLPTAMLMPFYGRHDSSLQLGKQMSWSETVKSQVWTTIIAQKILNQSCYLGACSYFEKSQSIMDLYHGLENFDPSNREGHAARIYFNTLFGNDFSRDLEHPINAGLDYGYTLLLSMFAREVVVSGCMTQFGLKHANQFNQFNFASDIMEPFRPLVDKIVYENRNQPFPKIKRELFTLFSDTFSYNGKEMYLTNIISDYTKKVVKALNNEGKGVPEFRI

[2] = molecular target: T2, Streptococcus pyogenes Cas1 R5K (S. pyogenes, UniProt Q99ZW1 1-289, R5K)
T2 construct: Cas1 of the Streptococcus pyogenes SF370 type II-A CRISPR-Cas locus with R5K; One of the plasmids pRAH246, pRAH248 or pRAH249; which plasmid holds which variant is in Supplementary Data 2; source: E. coli Rosetta 2(DE3) BL21, purified (Ni-NTA, SUMO protease, HiTrap Heparin, Superdex 200)
T2 sequence (looked up): T1 sequence (looked up) with R5K

[3] = molecular target: T3, Streptococcus pyogenes Cas1 R5A (S. pyogenes, UniProt Q99ZW1 1-289, R5A)
T3 construct: Cas1 of the Streptococcus pyogenes SF370 type II-A CRISPR-Cas locus with R5A; One of the plasmids pRAH246, pRAH248 or pRAH249; which plasmid holds which variant is in Supplementary Data 2; source: E. coli Rosetta 2(DE3) BL21, purified (Ni-NTA, SUMO protease, HiTrap Heparin, Superdex 200)
T3 sequence (looked up): T1 sequence (looked up) with R5A

| Binder | binding result [1] | binding result [2] | binding result [3] |
| --- | --- | --- | --- |
| B1 | binds | binds | binds |
| B2 | binds | – | – |
| B3 | binds | – | – |
